Data published in US12674167B2, “Aptamer specifically binding to cancer stem cells, and use thereof” (HiCELL Tech, priority 2019, dated 2026).
[NapdU] = 5-(N-naphthylcarboxyamide)-2'-deoxyuridine

Key:
[1] = test system: CD166-high cells of ovarian cancer stem cell line A2780-SP; assay: Tumor formation from aptamer-treated A2780-SP cells inoculated subcutaneously; type: in vivo, nude mice
Description: The effect of the CD166 aptamer AT-5 on tumor formation was confirmed. Specifically, cells in which the expression CD166 is high were isolated from the ovarian cancer stem cell line A2780-SP using a flow cytometer (ARIA3). The isolated cells were reacted with the CD166 aptamer AT-5 for 1 hour, respectively. The cells reacted with the aptamer (1×10^5 cells) were inoculated subcutaneously into nude mice. At this time, the aptamer-untreated cells were inoculated on the left side of nude mice, and the CD166 aptamer AT-5-treated cells were inoculated on the right side of nude mice. After inoculation, the tumor formation size was measured from the 18th day. Nude mice were euthanized on the 38th day of inoculation. Tumors were isolated from nude mice, and finally, the weight and size of the tumors were measured. The results of observation of the isolated tumors are shown in FIG. 26, the results of measuring the size of the tumors are shown in FIG. 27, and the results of measuring the weight of the tumors are shown in FIG. 28, respectively.

[2] = test system: focal adhesion signaling pathway in mesenchymal stem cells; assay: Focal adhesion signaling pathway by Western blotting, mesenchymal stem cells; type: cell-based; details: aptamer 1 hour, normal stem cells, FIG. 44
Excerpt: (§1) CD166 expression was inhibited using siRNA in the ovarian cancer stem cell line A2780-SP, and the focal adhesion signaling pathway was confirmed in CD166 expression-inhibited cells through Western blotting. Specifically, in order to inhibit the expression of CD166, the control (si Control) (5′-UUCUCCGAACGUGUCACGUTT-3′ (SEQ ID NO: 23); 5′-ACGUGACACGUUCGGAGAATT-3′ (SEQ ID NO: 24) and si CD166 (5′-AAGCCCGAUGGCUCCCCAGUAUU-3′ (SEQ ID NO: 25); 5′-AAUACUGGGGAGCCAUCGGGCUU-3′ (SEQ ID NO: 26) were constructed. The expression of CD166 was inhibited by reacting the constructed siRNA and the ovarian cancer stem cell line A2780-SP cells, and the cells were cultured after inhibition of expression. After culturing for 48 hours, the cells were collected, and protein expression of FAK, SRC, Paxillin and CD44, which are known as major genes of the focal adhesion signaling pathway, was confirmed through Western blotting. Antibodies against CD166 (ab109215, Abcam), CD44 (5640S, Cell Signaling Technology), p-PAXILLIN (2541S, Cell Signaling Technology), p-SRC (2101S, Cell Signaling Technology), p-FAK (3284S, Cell Signaling Technology), FAK (3285S, Cell Signaling Technology) and GAPDH (MAB374, EMD Milliore Corp, Billerica, MA) were used as primary antibodies. The results of confirming the focal adhesion signaling pathway inhibitory activity in CD166 expression-inhibited cells are shown in FIG. 14.
The mesenchymal stem cells were reacted with the CD166 aptamer AT-5 for 1 hour, respectively, and then the focal adhesion signaling pathway was confirmed in CD166 expression-inhibited cells through Western blotting. The Western blotting was performed in the same manner as in Example 5. In addition, the focal adhesion signaling pathway by CD166 expression inhibition in the mesenchymal stem cells was confirmed by the method of Example 4, and the results are shown in FIG. 44.

[3] = test system: patient-derived ovarian cancer stem cells; assay: Affinity of CD166 aptamer to patient-derived ovarian cancer stem cells (FACS); type: binding; details: FIG. 36A
[4] = test system: ovarian cancer stem cell line A2780-SP cells; assay: Affinity of CD166 aptamer to ovarian cancer stem cells by flow cytometry (FACS); type: binding; details: for affinity: as found in Example 8 (FACS)
Description: It was confirmed whether the CD166 aptamer constructed in Example 7 recognized ovarian cancer cells and ovarian cancer stem cells. The following experiment was performed to analyze the interaction between the CD166 aptamer and the ovarian cancer cell line A2780 cells. First, each of the CD166 aptamer (AT-1, AT-2, AT-3, AT-4, AT-5 and AT-6) was dissolved in sterile tertiary water and then heated at 95° C. for 5 minutes. After heating, it was cooled to 25° C. The aptamer was added to the ovarian cancer cell line A2780 cells at a concentration of 500 nM, and then the cells were cultured at room temperature and stained. Thereafter, the cells reacted with the CD166 aptamer were analyzed using a flow cytometer (fluorescence activated cell sorter, FACS), and the results are shown in FIG. 18.
In addition, in the same manner as described above, the ovarian cancer stem cell line A2780-SP cells were reacted with the CD166 aptamer, and then FACS was performed, and the results are shown in FIG. 19.
The affinity of the CD166 aptamer AT-5 and the CD166 FACS antibody (PE Mouse Anti-Human CD166, Cat:559263, BD Pharminggen) as the control to the ovarian cancer stem cell line A2780-SP cells was compared.

[5] = test system: CD166 expressing cells isolated from ovarian cancer stem cells; assay: Cell adhesion experiment, CD166 expressing ovarian cancer stem cells; type: cell-based; details: aptamer 500 nM, 1 hour, collagen-coated plate, FIG. 21
Description: The effect of the CD166 aptamer on cell adhesion ability was confirmed using the CD166 aptamers AT3, AT4 and AT5. Specifically, CD166 expressing cells were isolated from ovarian cancer stem cells using the CD166 FACS antibody. Cell adhesion experiment of the CD166 aptamer was performed using the isolated cells. First, […] blocked with 20 μg/ml of collagen for 1 hour. After blocking, 0.1% bovine serum albumin (BSA) was added and incubated for 1 hour to limit non-specific binding. The isolated cells were each exposed to the CD166 aptamer (500 nM) for 1 hour and then fixed with 4% formaldehyde. The fixed cells were stained with hoest33342.

[6] = test system: focal adhesion signaling pathway in patient-derived ovarian cancer stem cells; assay: Focal adhesion signaling pathway by Western blotting, patient-derived ovarian cancer stem cells; type: cell-based; details: aptamer 1 hour, FIG. 39
Excerpt: as §1
The patient-derived ovarian cancer stem cells were reacted with the CD166 aptamers AT-3 and AT-5 for 1 hour, respectively, and then the focal adhesion signaling pathway was confirmed in CD166 expression-inhibited cells through Western blotting. The Western blotting was performed in the same manner as in Example 5.

B1: AT5: 76-mer CD166 aptamer, N = NapdU: TCAGCCGCCAGCCAGTTCANNNGANAAAGCNCCGNNANCGGGCCCCNNGNAGAGNCANGACCAGAGCACCACAGAG (nucleic acid)
DNA: TCAGCCGCCAGCCAGTTCAUUUGAUAAAGCUCCGUUAUCGGGCCCCUUGUAGAGUCAUGACCAGAGCACCACAGAG
modifications: DNA, [NapdU] at 20, 21, 22, 25, 31, 35, 36, 38, 47, 48, 50, 55, 58, backbone not given here
[1]; cells pre-reacted with aptamer 1 hour, 1×10^5 cells subcutaneous, nude mice, FIG. 26
  tumor formation: inhibited
[1]; vs aptamer untreated group, day 18 to 38, FIG. 27
  size of the tumor: smaller
[1]; vs control, day 38, FIG. 28
  weight of the tumor: reduced significantly
[2]
  expression of p-PAXILLIN: not affected
  expression of p-SRC: not affected
  expression of the p-FAK Y925 site: not affected
[3]
  interaction with patient-derived ovarian cancer stem cells, signal intensity: the signal intensity is high
[4]; 500 nM, FACS, FIG. 19
  specificity of binding to ovarian cancer stem cells among the CD166 aptamers: most specifically binds
[4]
  affinity: high affinity
[5]
  cell adhesion: reduced
[6]
  expression of p-PAXILLIN: inhibited
  expression of p-SRC: inhibited
  expression of the p-FAK Y925 site: reduced

B2: AT4: 76-mer CD166 aptamer, N = NapdU: TCAGCCGCCAGCCAGTTCCNNCNAGAGNCANGCACGNNANCGGACCNGNCGGCGAANGGACCANANCACCACAGAG (nucleic acid)
DNA: TCAGCCGCCAGCCAGTTCCUUCUAGAGUCAUGCACGUUAUCGGACCUGUCGGCGAAUGGACCAUAUCACCACAGAG
modifications: DNA, [NapdU] at 20, 21, 23, 28, 31, 37, 38, 40, 47, 49, 57, 64, 66, backbone not given here
[4]
  affinity: high affinity
[5]
  cell adhesion: reduced
